Assay results from paper doi:10.1101/2024.11.27.625625 (bioRxiv, 2024).

T1: TolR with an octahistidine-tag at the C-terminus (E. coli, UniProt P0ABV6 1-142)
T1 sequence: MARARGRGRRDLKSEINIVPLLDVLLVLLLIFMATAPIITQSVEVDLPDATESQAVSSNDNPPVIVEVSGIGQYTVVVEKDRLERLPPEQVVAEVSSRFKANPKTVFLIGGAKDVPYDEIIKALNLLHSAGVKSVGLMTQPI

B1: TolQ (natural protein, E. coli)
chain: MTDMNILDLFLKASLLVKLIMLILIGFSIASWAIIIQRTRILNAAAREAEAFEDKFWSGIELSRLYQESQGKRDNLTGSEQIFYSGFKEFVRLHRANSHAPEAVVEGASRAMRISMNRELENLETHIPFLGTVGSISPYIGLFGTVWGIMHAFIALGAVKQATLQMVAPGIAEALIATAIGLFAAIPAVMAYNRLNQRVNKLELNYDNFMEEFTAILHRQAFTVSESNKG

Key:
cryo-EM structure = molecular target: the molecule itself; test: cryo-EM structure
TolQ = molecular target: B1; test: co-purification
[1] = molecular target: T1, TolR with an octahistidine-tag at the …; test: co-purification

stoichiometry N (TolQ) | stoichiometry N [1] | Binder | stoichiometry N (cryo-EM structure)
– | – | B1 | 5
~4.5 TolQ per TolA | ~1.5 TolR per TolA | TolA (natural protein, E. coli, UniProt P19934 1-421, looked up) MSKATEQNDKLKRAIIISAVLHVILFAALIWSSFDENIEASAGGGGGSSIDAVMVDSGAVVEQYKRMQSQESSAKRSDEQRKMKEQQAAEELREKQAAEQERLKQLEKERLAAQEQKKQAEEAAKQAELKQKQAEEAAAKAAADAKAKAEADAKAAEEAAKKAAADAKKKAEAEAAKAAAEAQKKAEAAAAALKKKAEAAEAAAAEARKKAATEAAEKAKAEAEKKAAAEKAAADKKAAAEKAAADKKAAEKAAAEKAAADKKAAAEKAAADKKAAAAKAAAEKAAAAKAAAEADDIFGELSSGKNAPKTGGGAKGNNASPAGSGNTKNNGASGADINNYAGQIKSAIESKFYDASSYAGKTCTLRIKLAPDGMLLDIKPEGGDPALCQAALAAAKLAKIPKPPSQAVYEVFKNAPLDFKP | –
